Laboratory results from publication PMC6630058 (Biotechnology Reports, 2019).

Target: Toxoplasma gondii major surface antigen 1 (SAG1) (Toxoplasma gondii, RH strain, UniProt P13664)
Assay: far-Western, overlay or dot blot

Chain of Toxoplasma gondii major surface antigen 1 (SAG1) (P13664 48-336): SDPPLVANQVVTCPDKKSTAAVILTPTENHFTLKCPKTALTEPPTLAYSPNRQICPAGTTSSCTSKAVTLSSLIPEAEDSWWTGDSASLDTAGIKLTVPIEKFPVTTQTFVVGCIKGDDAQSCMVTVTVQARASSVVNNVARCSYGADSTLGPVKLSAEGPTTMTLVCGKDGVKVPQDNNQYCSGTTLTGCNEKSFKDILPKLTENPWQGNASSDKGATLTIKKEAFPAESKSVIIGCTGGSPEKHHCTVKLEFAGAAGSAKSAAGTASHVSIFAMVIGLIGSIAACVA

B1: scFvSG15(VLT8P)-AP conjugate (scFvSG15-AP with T8P in FR-1 of the kappa VL) (scFv, V domains shown)
VH: QVQLQQSGAELVRPGVSVKISCKGSGYTFTDYGMHWVKQSHAKSLEWIGIISTYSGDASYNQKFKGKATMTVDKSSSTAYMELARLTSEDSAIYYCARSSTWYYFDYWGQGTTLTVSS
VL: DIQVTQTPSSLSASLGDRVTISCRASQDISNYLNWYQQKPDGTVKLLIYYTSRLHSGVPSRFSGSGSGTDYSLTISNLEQEDIATYFCQQGNTLPYTFGGGTKLEIK
B1: binds.
